Numbering of substitutions follows the chain as printed.
T1: human CD19 (full length, expressed on cells) (human, UniProt P15391 20-556)
T1 construct: whole, on cells; The functional assays used K562 cells transduced to express CD19; also called hsCD19; hCD19
T1 sequence (looked up): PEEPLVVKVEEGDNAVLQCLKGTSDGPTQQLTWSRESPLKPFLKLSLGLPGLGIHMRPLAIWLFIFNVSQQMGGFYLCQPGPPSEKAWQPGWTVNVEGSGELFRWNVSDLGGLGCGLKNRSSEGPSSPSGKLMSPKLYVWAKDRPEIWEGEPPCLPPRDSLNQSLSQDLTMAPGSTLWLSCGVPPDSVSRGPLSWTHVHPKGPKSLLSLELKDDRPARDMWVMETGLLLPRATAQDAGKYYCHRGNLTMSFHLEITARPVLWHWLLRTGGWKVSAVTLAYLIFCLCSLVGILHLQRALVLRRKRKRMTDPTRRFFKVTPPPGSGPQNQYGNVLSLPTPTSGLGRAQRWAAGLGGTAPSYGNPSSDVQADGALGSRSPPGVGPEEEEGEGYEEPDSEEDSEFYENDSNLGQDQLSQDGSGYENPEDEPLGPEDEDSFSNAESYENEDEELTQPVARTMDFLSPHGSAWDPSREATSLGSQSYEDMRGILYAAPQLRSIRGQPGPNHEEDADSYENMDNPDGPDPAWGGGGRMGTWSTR

B1: 103104 CAR 3 Soluble scFv (scFv)
scFv: QVQLQESGPGLVKPSETLSLTCTVSGVSLPDYGVSWIRQPPGKGLEWIGVIWGSETTYYSSSLKSRVTISKDNSKNQVSLKLSSVTAADTAVYYCAKHYYYGGSYAMDYWGQGTLVTVSSGGGGSGGGGSGGGGSEIVMTQSPATLSLSPGERATLSCRASQDISKYLNWYQQKPGQAPRLLIYHTSRLHSGIPARFSGSGSGTDYTLTISSLQPEDFAVYFCQQGNTLPYTFGQGTKLEIKHHHHHHHH
notes: also called CAR3 scFv; humanized scFv
B2: 103104 CAR12 Soluble scFv (scFv)
scFv: B1 scFv with S60N
notes: The clone number 103104 is printed for both CAR3 and CAR12; also called CAR12 scFv; humanized scFv
B3: 103106 CAR4 Soluble scFv (scFv)
scFv: B1 scFv with S60Q
notes: also called CAR4 scFv; humanized scFv
B4: 103101 CAR1 Soluble scFv (scFv)
scFv: EIVMTQSPATLSLSPGERATLSCRASQDISKYLNWYQQKPGQAPRLLIYHTSRLHSGIPARFSGSGSGTDYTLTISSLQPEDFAVYFCQQGNTLPYTFGQGTKLEIKGGGGSGGGGSGGGGSQVQLQESGPGLVKPSETLSLTCTVSGVSLPDYGVSWIRQPPGKGLEWIGVIWGSETTYYSSSLKSRVTISKDNSKNQVSLKLSSVTAADTAVYYCAKHYYYGGSYAMDYWGQGTLVTVSSHHHHHHHH
notes: It is built here as scFv domain plus His tag; also called CAR1 scFv; humanized scFv
B5: 103101 CAR11 Soluble scFv (scFv)
scFv: B4 scFv with S182N
notes: The clone number 103101 is printed for both CAR1 and CAR11; also called CAR11 scFv; 103101-WT (S/N)
B6: 103102 CAR2 Soluble scFv (scFv)
scFv: B4 scFv with S182Q
notes: also called CAR2 scFv; humanized scFv
B7: 99789 CAR5 Soluble scFv (scFv)
scFv: EIVMTQSPATLSLSPGERATLSCRASQDISKYLNWYQQKPGQAPRLLIYHTSRLHSGIPARFSGSGSGTDYTLTISSLQPEDFAVYFCQQGNTLPYTFGQGTKLEIKGGGGSGGGGSGGGGSGGGGSQVQLQESGPGLVKPSETLSLTCTVSGVSLPDYGVSWIRQPPGKGLEWIGVIWGSETTYYSSSLKSRVTISKDNSKNQVSLKLSSVTAADTAVYYCAKHYYYGGSYAMDYWGQGTLVTVSSHHHHHHHH
notes: also called CAR5 scFv; humanized scFv
B8: 99790 CAR6 Soluble scFv (scFv)
scFv: B7 scFv with S187Q
notes: also called CAR6 scFv; humanized scFv
B9: 99789 CAR9 Soluble scFv (scFv)
scFv: B7 scFv with S187N
notes: The clone number 99789 is printed for both CAR5 and CAR9; also called CAR9 scFv; humanized scFv
B10: 100796 CAR7 Soluble scFv (scFv)
scFv: QVQLQESGPGLVKPSETLSLTCTVSGVSLPDYGVSWIRQPPGKGLEWIGVIWGSETTYYSSSLKSRVTISKDNSKNQVSLKLSSVTAADTAVYYCAKHYYYGGSYAMDYWGQGTLVTVSSGGGGSGGGGSGGGGSGGGGSEIVMTQSPATLSLSPGERATLSCRASQDISKYLNWYQQKPGQAPRLLIYHTSRLHSGIPARFSGSGSGTDYTLTISSLQPEDFAVYFCQQGNTLPYTFGQGTKLEIKHHHHHHHH
notes: also called CAR7 scFv; humanized scFv
B11: 100798 CAR8 Soluble scFv (scFv)
scFv: B10 scFv with S60Q
notes: also called CAR8 scFv; humanized scFv
B12: 100796 CAR10 Soluble scFv (scFv)
scFv: B10 scFv with S60N
notes: The clone number 100796 is printed for both CAR7 and CAR10; also called CAR10 scFv; humanized scFv

Biological target: T1, human CD19 (full length, expressed on …)
Assay: flow cytometry; His-tagged soluble scFv on mouse cell line 300 expressing hCD19
Procedure: Mouse cell line 300.CD19 were grown in RPMI 1640 with 0.5 mg/ml Zeocin. Around 5e5 cells/per well were transferred to the BD Falcon 96 well plate. The cells were spin down at 900 rpm (Sorval Legend XT centrifuge) for 3 minutes. The supernatant were removed. Anti-CD19 scFv protein samples were diluted in DPBS with 5% FBS. The samples were added into the wells, mixed well with the cells and incubated for 1 hour. The cells were washed twice in the DPBS with 5% FBS. The cells were incubated with antipoly His PE (R&D) for 1 hour, washed twice before FACS analysis (LSRII from BD Biosciences).

Binder | binding result
B1 | binds
B2 | binds
B3 | binds
B4 | binds
B5 | binds
B6 | binds
B7 | binds
B8 | binds
B9 | binds
B10 | binds
B11 | binds
B12 | binds
